The RNAGym collection of RNA variant scans (doi:10.1073/pnas.2313332121)

B1: TPR t1 (parent)
chain: GACCAAUCUGCCCUCAGAGCUCGAGAACAUCUUCGGAUGCAGAGGAGGCAGGCUUCGGUGGCGCGAUAGCGCCAACGUCCUCAACCUCCAAUGCAUCCCACCACAUGAUGAUGCCUGAAGAGCCUUGGUUUUUUG

Variants of: B1
Assay: polymerase ribozyme fitness, log enrichment relative to wild type (log ratio); higher = more active; in vitro selection for triplet polymerase activity
Outline: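 Fitness measures genotype enrichment against wild-type enrichment on a logarithmic scale, with inverse-variance-weighted averaging of replicates. The logarithm is base 2, and genotypes were kept only with ≥10 input reads and ≥1 read per output in Illumina sequencing. The sequenced libraries came from one triplicate in vitro selection round, including frozen incubation at −7 °C, of PCR-built, transcribed mutant libraries of each subunit of a heterodimeric triplet polymerase ribozyme.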

First: G44U G69C
Second: G44U G71U
The “polymerase ribozyme fitness (log ratio)” value of the first is higher: -0.825 for the first, -1.06 for the second.

Going from G44U G113C U130A to G44U U112A, the “polymerase ribozyme fitness (log ratio)” value rises from -2.45 to 0.425.

Going from G44U U125A U131A to G45A A46C G58U G61U C85A, the “polymerase ribozyme fitness (log ratio)” value falls from -2.47 to -4.13.

First: G45A A50U U130C
Second: G45A A105G
The “polymerase ribozyme fitness (log ratio)” value of the first is higher: -0.0855 for the first, -3.69 for the second.

First: G45A A121U
Second: G45A C49G G60U U106C U112A
The “polymerase ribozyme fitness (log ratio)” value of the first is higher: 1.1 for the first, -0.821 for the second.

Going from G45A C53A U81C to G45A C53A U109G G110U A121U, the “polymerase ribozyme fitness (log ratio)” value falls from -0.267 to -3.48.

First: G45A C53G C64U
Second: G45A C53G G61A C79U C98U
The “polymerase ribozyme fitness (log ratio)” value of the first is higher: -0.958 for the first, -3.8 for the second.

G45A C53U C97U C115U U126C U130A and G45A C62U C115U U116C U126A G128C are within 0.2 log units of each other in “polymerase ribozyme fitness (log ratio)” value: -5.76 for the first, -5.86 for the second.

First: G45A C64G A68C C104A G117U
Second: G45A C72U A91G U129A
The “polymerase ribozyme fitness (log ratio)” value of the first is lower: -6.22 for the first, -3.43 for the second.

First: G45A C72U C89G A91C
Second: G45A C80U C115A A121G
The “polymerase ribozyme fitness (log ratio)” value of the first is lower: -1.81 for the first, 0.603 for the second.

Going from G45A C82A to G45A C85U C94A, the “polymerase ribozyme fitness (log ratio)” value falls from -1.1 to -2.05.

Going from G45A C89U U133A to G45A C94U G120C, the “polymerase ribozyme fitness (log ratio)” value rises from -1.52 to 0.045.

Compared with G45A C98U, G45A C99U is lower in “polymerase ribozyme fitness (log ratio)” value: -1.75 for the first, -4.32 for the second.

Going from G45A C114A to G45A G48U, the “polymerase ribozyme fitness (log ratio)” value rises from -1.97 to -1.58.

Going from G45A G51A to G45A G51U, the “polymerase ribozyme fitness (log ratio)” value falls from -3.66 to -4.34.

Compared with G45A G52C, G45A G60U C64U C94U A105U C124A G127A is lower in “polymerase ribozyme fitness (log ratio)” value: -1.37 for the first, -5.55 for the second.

G45A G61A and G45A G61A G110U U125C are within 0.2 log units of each other in “polymerase ribozyme fitness (log ratio)” value: -0.513 for the first, -0.661 for the second.

Compared with G45A G61U, G45A G63A is lower in “polymerase ribozyme fitness (log ratio)” value: -0.292 for the first, -1.39 for the second.

Compared with G45A G63A A95G C101G U130C, G45A G63A C104A is lower in “polymerase ribozyme fitness (log ratio)” value: -3.14 for the first, -3.61 for the second.

Going from G45A G63C G110A to G45A G69U A103C, the “polymerase ribozyme fitness (log ratio)” value falls from -1.54 to -2.35.

Compared with G45A G110A, G45A U55C C62A C89G is lower in “polymerase ribozyme fitness (log ratio)” value: -1.34 for the first, -3.49 for the second.

G45A U55C C70U G128A and G45A U59A A83C C114G G122C are within 0.2 log units of each other in “polymerase ribozyme fitness (log ratio)” value: -4.09 for the first, -4.2 for the second.

Compared with G45A U78C C86A G120U, G45A U130A is higher in “polymerase ribozyme fitness (log ratio)” value: -2.19 for the first, -1.49 for the second.

Going from G45C A46U to G45C A119G U131G U132A, the “polymerase ribozyme fitness (log ratio)” value rises from -2.34 to 0.0169.

First: G45C C53A G120A U129G
Second: G45C C53G C73A
The “polymerase ribozyme fitness (log ratio)” value of the first is lower: -1.07 for the first, -0.795 for the second.

Going from G45C C53G U81A A91C to G45C C53U U78A U112C, the “polymerase ribozyme fitness (log ratio)” value rises from -4.15 to 0.64.

Compared with G45C C62A, G45C C73U is higher in “polymerase ribozyme fitness (log ratio)” value: -2.24 for the first, -0.881 for the second.

Compared with G45C C82U G93A C101U, G45C C89U U133A is higher in “polymerase ribozyme fitness (log ratio)” value: -1.84 for the first, -1.58 for the second.

Going from G45C G51A U78A C123G to G45C G58C, the “polymerase ribozyme fitness (log ratio)” value rises from -2.51 to -0.221.

Going from G45C G60C U78A C89A G120C G127A to G45C G60C U129A, the “polymerase ribozyme fitness (log ratio)” value rises from -5.17 to -2.68.

G45C G61U C86U U87G G93C and G45C G69A U87C U130C are within 0.2 log units of each other in “polymerase ribozyme fitness (log ratio)” value: -2.62 for the first, -2.8 for the second.

First: G45C G69C
Second: G45C G93U
The “polymerase ribozyme fitness (log ratio)” value of the first is higher: -2.23 for the first, -3.67 for the second.

Going from G45C U55A C56A to G45C U55C A75U A95G U126A U129A, the “polymerase ribozyme fitness (log ratio)” value falls from -2.11 to -4.26.

First: G45C U96A G113C
Second: G45C U125A
The “polymerase ribozyme fitness (log ratio)” value of the first is lower: -3.21 for the first, -1.86 for the second.

Going from G45C U129A to G45C U132C, the “polymerase ribozyme fitness (log ratio)” value rises from -2.61 to -1.51.

Going from G45U A46U U106G to G45U A50U G52U G58A, the “polymerase ribozyme fitness (log ratio)” value falls from -3.7 to -4.49.

Going from G45U A50U G117U to G45U A66C, the “polymerase ribozyme fitness (log ratio)” value rises from -4.81 to -2.87.

First: G45U A66C G93C U96C C115A
Second: G45U A68G C79G C99U U112A
The “polymerase ribozyme fitness (log ratio)” value of the first is higher: -4.28 for the first, -7.19 for the second.

Compared with G45U A84G U96G C101G, G45U A90C A105G U106A U130G U131A is higher in “polymerase ribozyme fitness (log ratio)” value: -4.84 for the first, -2.74 for the second.

G45U A105C and G45U A111U are within 0.2 log units of each other in “polymerase ribozyme fitness (log ratio)” value: -4.28 for the first, -4.37 for the second.

First: G45U C53U A105U
Second: G45U C56A
The “polymerase ribozyme fitness (log ratio)” value of the first is lower: -3.69 for the first, -2.01 for the second.

With G45U C56G C73A U116C the “polymerase ribozyme fitness (log ratio)” value was -4.92.
